Reference: the supplement of paper PMC9170038

Tested on: MS2 coat protein
Experiment: apparent KD of MS2 coat protein; designed switch direction (-1 OFF switch, 1 ON switch): -1; higher = weaker reporter binding
In short: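 Three titration conditions were used: no input, 200 uM small-molecule ligand, and an oligonucleotide input. In each, SNAP-549-labelled MS2 coat protein was raised from 0.7 or 1.5 nM, doubling, to 3 µM over designed RNA switches transcribed on Illumina chips by stalled E. coli RNA polymerase. Curve fits of normalised cluster fluorescence gave values whose per-design median over clusters is the apparent KD.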

[1] = input ligand: microRNA oligo, concentration not stated
[2] = Eterna round: R95, input ligand: FMN 200 uM
[3] = Eterna round: R95, input ligand: microRNA oligo, concentration not stated
[4] = Eterna round: R95, input ligand: none

| Sequence | apparent KD of MS2 coat protein (input ligand: FMN 200 uM) [nM] | apparent KD of MS2 coat protein [1] [nM] | apparent KD of MS2 coat protein (input ligand: none) [nM] | apparent KD of MS2 coat protein [2] [nM] | apparent KD of MS2 coat protein [3] [nM] | apparent KD of MS2 coat protein [4] [nM] |
| --- | --- | --- | --- | --- | --- | --- |
| UACAUGAGGAUCACCCAUGUUUUGUCGUGUAUGGUAUUUAUCUAGGAUAUCAAUUUAGUUAUUUAUGAGAAGGAGAAUAUUAAU [JMF's solution 18] (Eterna round: R96, puzzle: Exclusion NG 3) | 33.6 | 32.8 | 43.1 |  |  |  |
| UACCUGAGGCUUUGCUUUAGGCUUACAUGAGGAUCACCCAUGUAGGAUAUGGUAGGCUUUGCUUACCAGAAGGACAUGGAAAUU [Mat - Exclusion NG 3 - Mod of JL - D20] (Eterna round: R96, puzzle: Exclusion NG 3) | 349 | 63 | 70.7 |  |  |  |
| UACCUGUAGGUAGGAUAUCAUUGCGAUUAGCUAUGAGAAGGACCACAUGAGGAUCACCCAUGUCUACUCAGGAACCGAAAGGUC [Fiskers ExNg1 - 1] (Eterna round: R96, puzzle: Exclusion NG 1) | 13 | 10.4 | 17.3 |  |  |  |
| UACUUGUUAGGAUAUCUUACAUUUGCAUCAUAGUAACCAUUGGAGAAGGGACAUGAGGAUCACCCAUGUUUGGA [tap-tap-tappy2] (Eterna round: R97, puzzle: Exclusion 4) | 32.2 |  | 31.5 |  |  |  |
| UAGAAACAUGAGGAUCACCCAUGUGAGGAUAUGAAAAAGAAAAGAAAAGAAAGAAGAAUCAGAAGGCACAAAGG [salish99-ex1_r3_082] (puzzle: Exclusion 1) |  |  |  | 38.1 | 35.8 | 28.7 |
| UAGAAAGAAGUCAGGAUAUCAUGAGUUGCAGCUCAUGAGAAGGGACAUGAGGAUCACCCAUGUAACACGCCUCU [Eternabot (L2) Solution 62] (Eterna round: R97, puzzle: Brourd's mod of Exclusion 4) | 28.9 |  | 24.8 |  |  |  |
| UAGAAUCGAGGAUAUACAUGAGGAUCACCCAUGUGUUGCCGCAUGAUGUGAUCGUCAGGUAGAAGGCGAUUAUA [Exclusion 3 - Mod of Jieux's Gilly Gone Silly 23 v.7] (puzzle: Exclusion 3) |  |  |  |  | 35.4 |  |
| UAGCAUUGCCAAAGGUAGUGCAAAACAUGAGGAUCACCCAUGUAGGAUAUGGUAGGCAAAGCUUACCAGAAGGACAUGAUAAUU [Mat - Exclusion NG 3 - Mod of JL - D17] (Eterna round: R96, puzzle: Exclusion NG 3) | 204 | 46.3 | 51.5 |  |  |  |
| UAGGAGUCAGGAUAUGCGAGAGAUUGAAGUAUGGGAUGUGAGCAGAAGGGACAUGAGGAUCACCCAUGUAUGGA [JR_Exclu4_Sub093] (puzzle: Exclusion 4) |  |  |  |  | 146 |  |
| UAGGUGCAAGGAUAUCGCCCGGAAGACAUGAGGAUCACCCAUGUACCGGGUGAGUAUGGGCGAGAAGGUGCAUAUU [Usergete] (puzzle: Exclusion 5) |  |  |  | 298 | 75.9 | 92 |
| UAGUAAAAGGUGAGGAUAUCCGCAAUAAAACGUGAGGAGAAGGCACAUGAGGAUCACCCAUGUAGGGUAUCAAA [BmEX4 A.17] (Eterna round: R97, puzzle: Brourd's mod of Exclusion 4) | 421 |  | 450 |  |  |  |
| UAGUACAGAGGAUAUACAUGAGGAUCACCCAUGUGUUUCAGCUAGGAGACUAGCGAAAGUAGAAGGCUGUACUU [salish99_ex3_r4_009] (Eterna round: R97, puzzle: Exclusion 3) | 22.4 |  | 8.4 |  |  |  |
| UAGUGGCAAGGAUAUACAGAGGAGAGGAUUGCAAGAGGUGGACAUGAGGAUCACCCAUGUAGAAGGUGCAGAGA [JR_Exclu2_Sub022] (puzzle: Exclusion 2) |  |  |  |  | 252 |  |
| UAGUUAAACACAGGAUAUCGCCUCUUAUUACAUGAGGAUCACCCAUGUUUAGUUAGUUACAUGUUCGAGAAGGGUGAAGUAGUU [JR_ExcNG2_Sub041] (Eterna round: R96, puzzle: Exclusion NG 2) | 793 | 1300 | 555 |  |  |  |
